# Laboratory results reported in patent publication US20220380471A1 (US Dept. of Health and Human Services, published 2022).
# T1: B7H3 peptide 11 (human)
# T1 peptide: SFTCFVSIRDFGSAAVSL
# T2: B7H3 peptide 15 (human)
# T2 peptide: LRPGDTVTITCSSYQGYP
# T3: B7H3 peptide 10 (human)
# T3 peptide: QRVRVADEGSFTCFVSIR
# T4: hB7H3-His (human, UniProt Q5ZPR3 29-461, limits assumed)
# T4 construct: not shown: His tag
# T4 sequence (looked up): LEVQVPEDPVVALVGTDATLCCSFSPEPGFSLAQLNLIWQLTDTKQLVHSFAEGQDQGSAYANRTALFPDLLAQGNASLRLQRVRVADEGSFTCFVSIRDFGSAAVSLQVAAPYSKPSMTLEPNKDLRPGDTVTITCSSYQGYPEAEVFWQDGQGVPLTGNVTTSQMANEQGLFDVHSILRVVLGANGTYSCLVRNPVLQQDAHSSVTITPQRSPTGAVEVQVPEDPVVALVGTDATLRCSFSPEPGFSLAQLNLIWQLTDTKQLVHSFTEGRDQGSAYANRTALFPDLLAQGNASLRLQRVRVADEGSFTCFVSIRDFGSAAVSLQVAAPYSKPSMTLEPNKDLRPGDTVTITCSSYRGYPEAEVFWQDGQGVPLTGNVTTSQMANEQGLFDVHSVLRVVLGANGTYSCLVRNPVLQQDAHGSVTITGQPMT
# T5: B7H3 (CD276) on MC38-CD276+ cells
# T5 construct: whole, on cells; MC38-CD276KO cells served as the negative control; also called MC38-B7H3+
# T5 sequence (Q5ZPR3 1-534, species assumed, looked up): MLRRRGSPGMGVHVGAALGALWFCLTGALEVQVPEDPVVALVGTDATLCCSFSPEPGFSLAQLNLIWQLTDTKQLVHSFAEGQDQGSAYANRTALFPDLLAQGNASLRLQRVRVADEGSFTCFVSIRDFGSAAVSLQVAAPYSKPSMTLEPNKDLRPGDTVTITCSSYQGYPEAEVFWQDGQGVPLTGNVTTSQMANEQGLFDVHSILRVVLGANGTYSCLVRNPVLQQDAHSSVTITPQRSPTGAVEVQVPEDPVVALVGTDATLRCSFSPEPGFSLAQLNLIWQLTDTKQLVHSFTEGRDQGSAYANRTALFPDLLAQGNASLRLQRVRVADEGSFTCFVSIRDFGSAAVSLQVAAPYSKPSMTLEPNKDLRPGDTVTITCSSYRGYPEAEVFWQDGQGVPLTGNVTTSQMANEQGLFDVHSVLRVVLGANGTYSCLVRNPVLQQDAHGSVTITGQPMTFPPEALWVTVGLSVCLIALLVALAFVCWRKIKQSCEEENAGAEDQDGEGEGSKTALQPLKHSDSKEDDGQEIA
# T6: recombinant human B7H3-Fc protein (human, UniProt Q5ZPR3 29-466, limits assumed)
# T6 construct: 154 kDa non-reduced, 77 kDa reduced; also called hB7H3-Fc; not shown: Fc part
# T6 sequence (looked up): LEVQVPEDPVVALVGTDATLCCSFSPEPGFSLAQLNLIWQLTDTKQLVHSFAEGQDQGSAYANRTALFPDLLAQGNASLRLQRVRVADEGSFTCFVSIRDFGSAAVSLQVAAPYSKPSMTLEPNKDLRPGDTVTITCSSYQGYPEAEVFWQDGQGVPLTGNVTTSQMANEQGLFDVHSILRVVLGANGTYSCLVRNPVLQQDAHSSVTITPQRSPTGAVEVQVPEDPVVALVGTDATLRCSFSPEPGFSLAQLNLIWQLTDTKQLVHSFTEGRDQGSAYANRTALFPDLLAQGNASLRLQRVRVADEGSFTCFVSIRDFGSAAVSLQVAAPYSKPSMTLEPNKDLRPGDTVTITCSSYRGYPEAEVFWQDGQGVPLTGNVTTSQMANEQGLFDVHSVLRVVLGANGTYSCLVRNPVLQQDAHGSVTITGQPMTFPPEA
# Key:
# Irrelevant antigen = target: T7, Irrelevant antigen; experiment: ELISA; row Irrelevant antigen; well 3 of 3
# T7 construct: negative control
# Summary of the method: (§1)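 Camel VHH nanobodies were isolated by phage panning on recombinant B7H3-Fc and then purified. Their binding to immobilised recombinant proteins (B7H3 fusion proteins and non-B7H3 control proteins) was measured by ELISA and recorded as the ELISA signal.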
# B7H3 peptide 11 = target: T1, B7H3 peptide 11; experiment: peptide ELISA (OD450), 18-mer peptides of human B7H3
# Text: (§2) FIGS. 21A-21C: G8 cross-reacts with mouse B7H3 and kills mouse cancer cells. (FIG. 21A) Binding activity of anti-B7H3 nanobodies to mouse antigen detected by flow cytometry. […] (FIG. 21C). […] A total of 48 peptides from the human B7H3 protein were designed and synthesized. Each peptide consisted of 18 amino acids and overlapped with adjacent peptides by 9 amino acids. ELISA technology was used to test binding ability of antibody to each peptide. Number indicates the OD₄₅₀ value. […] The peptide sequences are shown below the table. C4 and B12 may have a conformational epitope that couldn't be predicted by a linearized peptide library.
# (§3) A total of 48 peptides from the human B7H3 protein were designed and synthesized. Each peptide consisted of 18 amino acids and overlapped with adjacent peptides by 9 amino acids. ELISA technology was used to test binding ability of the antibodies to each peptide (FIG. 21C). […] C4 and B12 may have a conformational epitope that couldn't be predicted by a linearized peptide library.
# B7H3 peptide 15 = target: T2, B7H3 peptide 15; experiment: as above
# Text: as §2, §3
# B7H3 peptide 10 = target: T3, B7H3 peptide 10; experiment: as above
# Text: as §2, §3
# B7H3 R&D [1] = experiment: ELISA; row B7H3 R&D; well 2 of 3
# Summary of the method: as §1
# PD-L1 [2] = experiment: ELISA; row PDL1-Fc; well 1 of 3
# Summary of the method: as §1
# hB7H3-His = target: T4, hB7H3-His; experiment: ELISA; row B7H3-his; well 1 of 3
# Summary of the method: as §1
# B7H3 R&D [3] = experiment: ELISA; row B7H3 R&D; well 3 of 3
# Summary of the method: as §1
# [4] = target: T5, B7H3 (CD276) on MC38-CD276+ cells; experiment: flow cytometry on MC38-CD276+ cells, VHH at 10 ug/ml
# PD-L1 [5] = experiment: ELISA; row PDL1-Fc; well 2 of 3
# Summary of the method: as §1
# HN3-Fc = experiment: ELISA; row HN3-Fc; well 2 of 3
# Summary of the method: as §1
# [6] = target: T6, recombinant human B7H3-Fc protein; experiment: ELISA; row B7H3-Fc; well 3 of 3
# Summary of the method: as §1
# PD-L1 [7] = experiment: ELISA; row PDL1-Fc; well 3 of 3
# Summary of the method: as §1
# Sequence of PD-L1 (Q9NZQ7 whole entry): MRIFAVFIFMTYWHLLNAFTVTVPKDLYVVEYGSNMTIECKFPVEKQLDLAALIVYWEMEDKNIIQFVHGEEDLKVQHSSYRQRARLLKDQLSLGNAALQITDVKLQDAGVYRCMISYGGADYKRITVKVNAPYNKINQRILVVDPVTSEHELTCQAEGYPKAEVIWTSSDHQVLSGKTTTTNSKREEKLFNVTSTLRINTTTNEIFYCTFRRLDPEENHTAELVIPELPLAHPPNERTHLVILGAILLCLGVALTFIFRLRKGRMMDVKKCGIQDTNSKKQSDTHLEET
binder,measurement,setting,value
"RWB12 (VHH, Camel VHH; tag not described; also called camel antibody RWB12) VHH: QVQLVESGGGSVQVGGSLRLSCAASGFTYNSYSVGWFRQAPGKEREGVAAINSGGSSTYYAASVKGRFTISRDNAKNTVYLQMNSLKPEDTAMYYCAARSPSPLTFQTRTLREDSYNYWGQGTQVTVSS",ELISA reading (name not given),Irrelevant antigen,0.0853
same,binding result,B7H3 peptide 11,no binding
same,binding result,B7H3 peptide 15,no binding
same,binding result,B7H3 peptide 10,no binding
same,ELISA reading (name not given),B7H3 R&D [1],0.0559
same,ELISA reading (name not given),PD-L1 [2],0.0639
same,ELISA reading (name not given),hB7H3-His,0.0603
same,ELISA reading (name not given),B7H3 R&D [3],0.0955
same,Positive rates,[4],4.16%
same,ELISA reading (name not given),PD-L1 [5],0.0685
same,ELISA reading (name not given),HN3-Fc,0.0616
same,ELISA reading (name not given),[6],0.952
same,ELISA reading (name not given),PD-L1 [7],0.0624
"RWC4 (VHH, Camel VHH; tag not described; also called camel antibody RWC4) VHH: EVQLVESGGGSVQAGGSLRLSCVASEDSTSAMCMGWFRQAPGKEREGVACINPTGEVTWYGDSVKGRFTISRDTVKKIVYLQMNSLKPEDTAMYYCAARVTYGGDWSTDTDYEYWGQGTQVTVSS",ELISA reading (name not given),Irrelevant antigen,0.102
same,binding result,B7H3 peptide 11,no binding
same,binding result,B7H3 peptide 15,no binding
same,binding result,B7H3 peptide 10,no binding
same,ELISA reading (name not given),B7H3 R&D [1],0.151
same,ELISA reading (name not given),PD-L1 [2],0.0625
same,ELISA reading (name not given),hB7H3-His,0.114
same,ELISA reading (name not given),B7H3 R&D [3],0.156
same,Positive rates,[4],98.3%
same,ELISA reading (name not given),PD-L1 [5],0.0627
same,ELISA reading (name not given),HN3-Fc,0.046
same,ELISA reading (name not given),[6],1.95
same,ELISA reading (name not given),PD-L1 [7],0.0613
"RWG8 (VHH, Camel VHH; tag not described; also called camel antibody RWG8) VHH: DVQLVESGGGLVQPGGSLRLSCAASGFTFSRYWMGWFRQAPGKGVEWVSTINSGGGSTYYADSVKGRFTISRDNAKNTLYLQLNNLKTEDTAMYYCAKEQWRTGSRGQGTQVTVSS",ELISA reading (name not given),Irrelevant antigen,0.114
same,binding result,B7H3 peptide 11,binds
same,binding result,B7H3 peptide 15,binds
same,binding result,B7H3 peptide 10,binds
same,ELISA reading (name not given),B7H3 R&D [1],0.0632
same,ELISA reading (name not given),PD-L1 [2],0.0653
same,ELISA reading (name not given),hB7H3-His,0.0693
same,ELISA reading (name not given),B7H3 R&D [3],0.0646
same,Positive rates,[4],4.68%
same,ELISA reading (name not given),PD-L1 [5],0.0633
same,ELISA reading (name not given),HN3-Fc,0.0514
same,ELISA reading (name not given),[6],1.87
same,ELISA reading (name not given),PD-L1 [7],0.0999
"RWG4 (VHH, Camel VHH; tag not described; also called camel antibody RWG4) VHH: QVQLVQSGGGLVQPGGSLRLSCAASGFTFSVYWFYWVRQAPRQGLEWVSTIASNGSTYYSDSVKGRFTISRDNAKNTVYLQMNSLKPEDTAVYYCVSDPDYYSDYERAYKFWAQGTQVTVSS",Positive rates,[4],85.8%
